Test system: TAB1 (437-504)

**Q.** Which “in vitro kinase assay of immunoprecipitated TAK1 (activation of XMEK2 (SEK1), phosphorylation of KN-p38 (MPK2))” value does the source give for TAK1-HA here?
**A.** TAB1 increases TAK1 kinase activity

— patent US20060172380
